The values that follow come from patent US20240294945A1.

Test in all cases: cell-based or functional assay
The target of experiment [1] is TALE-free DddAtox half G1397-C (Burkholderia cenocepacia).
Experiment [2] concerns the target right-TALE:G1397C (the C-terminal G1397 DddAtox half fused to the C-terminus of the right-TALE array (Burkholderia cenocepacia)).
In experiment [3] the target is TALE-free DddAtox half G1397-N (Burkholderia cenocepacia) (UniProt P0DUH5).
Experiment [4] has as its target TALE-free DddAtox half G1333-N (Burkholderia cenocepacia) (UniProt P0DUH5).
Experiment [5] has as its target TALE-free DddAtox half G1333-C (Burkholderia cenocepacia) (UniProt P0DUH5).
Experiment [6] addresses right-TALE:G1333-C, mtND1-targeted DdCBE subunit (Burkholderia cenocepacia).

As to “left-TALE:G1397N (the N-terminal G1397 DddAtox half fused to the C-terminus of the left-TALE array),”, in experiment [1], the base editing efficiency at the mtND1 target, HEK293T came to 31%. The substance further displayed a cytosine-to-thymine editing efficiency at C11 of the mtND1 target, HEK293T in experiment [2] of 60.7%. Substance “right-TALE:G1397C (the C-terminal G1397 DddAtox half fused to the C-terminus of the right-TALE array” came in with a base editing efficiency at the mtND1 target, HEK293T in experiment [3] of 8.1%. For “right-TALE:G1333-C, mtND1-targeted DdCBE subunit”, the base editing efficiency at position C8 of the mtND1 target, HEK293T in experiment [4] came out at 18.1%. As to “left-TALE:G1333-N, mtND1-targeted DdCBE subunit”, the base editing efficiency at position C8 of the mtND1 target, HEK293T in experiment [5] was 32.7%; in experiment [6], 56.1%.
